Substitutions are numbered along the chain they refer to.
T1: Cynomolgus monkey CLDN18.2 (cynomolgus monkey)
T1 chain: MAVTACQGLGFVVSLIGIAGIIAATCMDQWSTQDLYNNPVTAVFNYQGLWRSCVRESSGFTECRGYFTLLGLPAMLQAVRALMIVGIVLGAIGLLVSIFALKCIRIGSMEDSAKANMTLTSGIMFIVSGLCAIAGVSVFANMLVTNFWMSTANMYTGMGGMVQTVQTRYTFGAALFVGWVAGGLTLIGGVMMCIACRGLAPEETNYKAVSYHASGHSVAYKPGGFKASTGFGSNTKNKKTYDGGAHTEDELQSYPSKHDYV

T2: Mouse CLDN18.2 (mouse, UniProt P56857 10-264)
T2 chain: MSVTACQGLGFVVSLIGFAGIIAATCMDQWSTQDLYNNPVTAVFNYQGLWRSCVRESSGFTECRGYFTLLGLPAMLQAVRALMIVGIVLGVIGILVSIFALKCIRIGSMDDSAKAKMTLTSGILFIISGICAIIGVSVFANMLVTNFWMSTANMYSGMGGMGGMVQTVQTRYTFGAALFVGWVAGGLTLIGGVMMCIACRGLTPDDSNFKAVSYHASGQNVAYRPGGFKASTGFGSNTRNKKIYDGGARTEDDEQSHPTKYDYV

B1: c14E12 (antibody, V domains shown)
VH: EVQLQESGPELVKPGASVKMSCKASGYTFTNYIIHWVKQKPGQGLEWIGYINPYTDGPKYNEKFKGRATLTSDKSSSTAYMEFSSLTSEDSAVYYCARLNRGNAMDYWGQGTSVTVSS
VL: DIVMTQSPSSLSVSAGEKVTMSCKSSQSLLNNGNQKNYLAWYQQKPGQPPKLLIYGASTRESGVPDRFTGSGSGTDFALTISSVQAEDLAVYYCQNDLYYPFTFGSGTKLDIKR
B2: c3A6 (antibody, V domains shown)
VH: EVQLVESGGDLVQPGGSLKLSCAASGFTLSRYGMSWVRQTPDKRLEWVSTIISGGINTYYSDSVKGRFSISRDNARNTLYLQMSSLKSEDTAMYYCGRLYYGNAMDYWGQGTAVTVSS
VL: DIVMTQSPSSLTVTAGEKVTMSCKSSQSLLNSGNQKNYLTWYQQKPGQPPKLLIYWASTRESGVPDRFTGSGSGTHFTLTISSVQAEDLAVYYCQNDYSYPLTFGAGTKLELKR
B3: c7E3 (antibody, V domains shown)
VH: B1 VH with E6Q
VL: B2 VL with A15V, G16R, M21L, H76D, D97V, S99I, L102F
B4: c5E6 (antibody, V domains shown)
VH: EVQLQQSGPELVKPGASVKMSCKASGYTFTNYVMNWVKQKPGQGLEWIGYINPYNDGTKYNERFKGKATLTSDKSSSTAFMEVSSLTSEDSAVYYCARLYRGNAMDYWGQGTSVTVSS
VL: B2 VL with A15V, G16R, M21L, H76D, D97V, S99I, L102F
B5: c17B10 (antibody, V domains shown)
VH: B1 VH
VL: B2 VL with S22N, H76D, Y100F, L102F, A106S, L112I
B6: Standard antibody (antibody, V domains shown)
VH: QVQLQESGPGLIKPSQTLSLTCTVSGGSISSGYNWHWIRQPPGKGLEWIGYIHYTGSTNYNPALRSRVTISVDTSKNQFSLKLSSVTAADTAIYYCARIYNGNSFPYWGQGTTVTVSS
VL: DIVMTQSPDSLAVSLGERATINCKSSQSLFNSGNQKNYLTWYQQKPGQPPKLLIYWASTRESGVPDRFSGSGSGTDFTLTISSLQAEDVAVYYCQNAYSFPYTFGGGTKLEIKR
notes: detected with anti-human IgG-Fc
B7: 7E3 (hybridoma clone, murine CLDN18.2 antigen-binding protein) (antibody, V domains shown)
VH: B1 VH with E6Q
VL: B2 VL with A15V, G16R, M21L, H76D, D97V, S99I, L102F
notes: Murine monoclonal antibody tested as hybridoma culture supernatant
B8: 3A6 (hybridoma clone, murine CLDN18.2 antigen-binding protein) (antibody, V domains shown)
VH: B2 VH
VL: B2 VL
notes: as for B7
B9: 14E12 (hybridoma clone, murine CLDN18.2 antigen-binding protein) (antibody, V domains shown)
VH: B1 VH
VL: B1 VL
notes: as for B7
B10: 5E6 (hybridoma clone, murine CLDN18.2 antigen-binding protein) (antibody, V domains shown)
VH: B4 VH
VL: B2 VL with A15V, G16R, M21L, H76D, D97V, S99I, L102F
notes: as for B7
B11: 17B10 (hybridoma clone, murine CLDN18.2 antigen-binding protein) (antibody, V domains shown)
VH: B1 VH
VL: B2 VL with S22N, H76D, Y100F, L102F, A106S, L112I
notes: as for B7

Target: T1, Cynomolgus monkey CLDN18.2
Test: FACS on 293T-cynomolgus monkey CLDN18.2 cells (FIG. 4)
Procedure: (§1) The species cross-binding activity of the above antigen-binding proteins to mouse CLDN18.2 and cynomolgus monkey CLDN18.2 were tested through FACS on the CytoFLEX flow cytometer (purchased from BECKMAN COULTER Company) using PBS containing 0.1% BSA as a buffer. […] The treated cells were then resuspended in a flow cytometry buffer to the cell density of 1×10⁶ cells/ml, and then added into V-bottom 96-well plates at 30 μl/well. Primary antibodies with initial concentration of 10 ug/ml were gradient diluted with the flow cytometry buffer at a three-fold ratio to form 6 gradients. […] After inoculation at 4° C. for one hour, the plates were washed once with the flow cytometry buffer. The secondary antibody (abcam, Cat #ab98593) was added at 30 μl/well. After incubation at 4° C. for 30 minutes, the plates were washed twice with the flow cytometry buffer and the cells were shaken dispersedly. The flow cytometry buffer was added at 30 μl/well, and then the cells were tested on the flow cytometer. Original data were entered into the software GraphPad8.0 for graphing and calculation.

Row | binding result | Binder
1 | binds | B1
2 | binds | B2
3 | binds | B3
4 | binds | B4
5 | binds | B5

target: T3, Human CLDN18.2 (human, UniProt P56856-2 1-261); test: FACS on SP2/0-hCLDN18.2 cells (FIG. 12)
T3 construct: whole, on cells; also called human Claudin18.2; hCLDN18.2
Procedure: After counting, the SP2/0-hCLDN18.2 cell was resuspended in a flow cytometry buffer, adjusted to the density of 1×10⁶ cells/ml, and then added into V-bottom 96-well plates at 30 μl/well. Primary antibodies with initial working concentration of 80 μg/ml were added at 30 μl/well, and then gradient diluted with the flow cytometry buffer at a four-fold ratio to form 7 gradients. A PBS negative control was set up for each antibody. After inoculation at 4° C. for one hour, the plates were washed once with the flow cytometry buffer. The secondary antibody, i.e., goat F(ab′)2 anti-human IgG-Fc (DyLight® 650) (abcam, Cat #ab98593), was added at 30 μl/well. After inoculation at 4° C. for 30 minutes, the plates were washed twice with the flow cytometry buffer and the cells were shaken dispersedly. The flow cytometry buffer was added at 25 μl/well, and then the cells were ready for FACS on the flow cytometer. In the meanwhile, after counting, the SP2/0-hCLDN18.1 cell was loaded in plates. Primary antibodies with initial working concentration of 10 μg/ml were gradient diluted at a three-fold ratio to form 5 concentration gradients in total. The secondary antibody used was goat F(ab′)2 anti-human IgG-Fc (DyLight® 650) (abcam, Cat #ab98593). Original data were entered into the software GraphPad8.0 for graphing and calculation.

Row | binding result | Binder
6 | binds | B6

Target: T2, Mouse CLDN18.2
Test: FACS on 293T-mouse CLDN18.2 cells (FIG. 4)
Procedure: as §1

Row | binding result | Binder
7 | binds | B1
8 | binds | B2
9 | binds | B3
10 | binds | B4
11 | binds | B5

target: T3, Human CLDN18.2; test: FACS, hybridoma culture supernatant on 293T-human CLDN18.2 cells
Procedure: (§2) The cells were co-incubated at 4° C. for 1 hour and the plates were washed once with the flow cytometry buffer. A corresponding secondary antibody was added at 30 ul/well and co-incubated at 4° C. for 30 minutes and the plates were then washed with the flow cytometry buffer twice. After the cells were shaken loose, the FACS buffer was added at 25 μl/well, and FACS was then performed on the iQue Screener flow cytometer (purchased from IntelliCyt Company). The mother clones that were positive for CLDN18.2 in the primary sorting were picked for expansion culture in 24-well cell culture plates. Three days later, the cell supernatant was taken for re-sorting by FACS. […] The positive hybridoma mother clones were monocloned using a gradient dilution method. After two to three rounds of subcloning and FACS, a monoclonal hybridoma cell secreting a CLDN18.2-specific antibody was obtained.

Row | Average fluorescence intensity | Binder
12 | 48200 | B7
13 | 101000 | B8
14 | 16600 | B9
15 | 108000 | B10
16 | 30600 | B11

target: T3, Human CLDN18.2; test: FACS, hybridoma culture supernatant on CHO-human CLDN18.2 cells
Procedure: as §2

Row | Average fluorescence intensity | Binder
17 | 84800 | B7
18 | 215000 | B8
19 | 27600 | B9
20 | 293000 | B10
21 | 52100 | B11

From US20240182562A1 (ORICELL THERAPEUTICS, published 2024)
